Laboratory results as given in the supplement of paper PMC12764529.
± gives the half width of the 95% confidence interval.

How the values were obtained:
[1] = folding stability dG unfold from trypsin proteolysis; higher = more stable
In short: (§1)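 Bayesian fitting of sequencing counts gave K50 for each design. Unfolding free energy followed by setting this against a sequence-predicted unfolded-state K50 and a shared folded-state K50, either per protease or with trypsin and chymotrypsin combined. The designs, under 80 residues and lacking cysteine, were digested in a PA-tagged cDNA display format at 11 threefold-diluted protease concentrations and without protease, and only those with AlphaFold2 dimer inter-PAE above 15 were kept.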

[2] = folding stability dG unfold from chymotrypsin proteolysis; higher = more stable
In short: as §1

[3] = folding stability dG unfold (combined trypsin and chymotrypsin); higher = more stable
In short: as §1

Sequence | folding stability dG unfold [1] [kcal/mol] | folding stability dG unfold [2] [kcal/mol] | folding stability dG unfold [3] [kcal/mol]
NPGKPLEIDIEVDIFEFPGGKFAIITFPIRLPGNGYWVQIEFWINPDGGLVMKIDVYDPGNGKPEEITIPIS [r1_261_TrROS] | 3.27 ± 0.27 | 5.04 ± 0.2 | 4.64 ± 0.2
NRYYRITIRNPDGMPIELFVRRSPNGEYMVRVKINMPNKKPKTIWFPFKSPEDILEEIRKHLPWDIEIEPWS [r1_137_TrROS] | 3.46 ± 0.089 | 3.28 ± 0.053 | 3.31 ± 0.087
PETVTLTVEIEIEVRGPDGKPLTPEQVEELAKALAEELAAELGLEVEVTVTVEPVGPDGKYRITVTVTIRPS [r1_231_TrROS_Hall] | 4.45 ± 0.34 | 5.69 ± 0.86 | > 6
PFPIYVKIERDGKPVREEPIPMDELQEMPVEEVIEYARELLRQFPGRKYKVEVYFPGGPREFEIKDPEDIKS [r1_477_TrROS] | 0.496 ± 0.071 | 1.58 ± 0.14 | 1.28 ± 0.16
PISAEEAVDYAKHLAERLLKENPPGQEEVEIEFQSPNGWTVKIEIDPNNRKIDVEVYPRNGEPIAKAKIKVS [r1_370_TrROS] | 0.108 ± 0.12 | 0.378 ± 0.33 | 0.205 ± 0.35
PKIVEILDAKRTPDGSLVIKIKIEPPEPNVKIKVIVKTPNSFKVYEIDPTKTTLEITIPGNVTNPKIEVFGS [r1_428_TrMRF] | 2.51 ± 0.17 | 2.65 ± 0.14 | 2.52 ± 0.34
PKYVIKAVNPKVGEVKTIEVDDDPEKAIEALKALKKADPDIKFYISGVKSDELIEAAKEAGLEDLNFTEVES [r1_114_TrMRF] | 3.2 ± 0.15 | 4.02 ± 0.27 | 4.02 ± 0.32
PLVLRLPDGAEAVRVEFFPERNTVVAFFRAPDRLLVVEVRFEPVGGGLLAPVRVRALPVPPTPEQLRLLAES [r1_154_TrMRF] | 1.35 ± 0.098 | 2.58 ± 0.089 | 2.17 ± 0.093
PNFKIDIEIIKAEEVPPRPTDDGKPQPVRRIHIRIEVKGPPDQPPELANNIVEEIMAELQELGLPVHIHVWS [r1_305_TrROS] | 1.62 ± 0.054 | 1.91 ± 0.075 | 1.83 ± 0.21
RVEVLENGEVIAVFPAEFLADIPPDDPLLLTLTLTLPDGYRVYVTFYNLPDGTVVAIARVEPVEVGPELAAS [r1_394_TrMRF] | 3.32 ± 0.14 | 4.46 ± 0.066 | 4.22 ± 0.12
SAAAENGEITISVEVELDPETNTLTIKRVEITVNGKLIATATLTITLPPPPPEPEETVYVHPDDPEALKSAG [r14_571_TrROS_Hall] | 1.54 ± 0.023 | 1.97 ± 0.038 | 1.85 ± 0.093
SAAFAIKAIATPPNGKKYEILALDNGEGVLVFIENGSKEIPLEELIKLIENNPELKIEKIEIRPLSEFLSAG [r14_336_TrMRF] | 0.667 ± 0.11 | 0.486 ± 0.19 | 0.611 ± 0.17
SAAFKGKNGKTIKITAKVKPNELTPEQVKELALAAVKNIFPENEKVEVKVKVEKLPNGEVLVYVEVKAESAG [r14_389_TrMRF] | 1.22 ± 0.038 | 0.342 ± 0.17 | 0.905 ± 0.085
SAAKIYILPGNNVILVRPPLPNGPFGELVIPTKPSELENPEFLKEIVDEIRKAGIPFEATILPPGVPPESAG [r14_60_TrMRF] | 0.426 ± 0.089 | 1.34 ± 0.11 | 0.868 ± 0.24
SAAKKLKELGYKVKKVEVLKPFTLPDGTTLTEYRITVELPTKTVTVDIIAPGESPEIAEEAALAAITASSAG [r14_726_TrMRF] | 1.25 ± 0.016 | 3.157 ± 0.011 | 2.81 ± 0.051
SAALAELLLNEGYEVRIEVEVREVRPRTLPGGGTTVELDITVRIELRPPPIPPPPLDPRLLRDEDGHLRSAG [r14_569_TrMRF] | 2.35 ± 0.037 | 1.95 ± 0.071 | 2.15 ± 0.1

Sequence | folding stability dG unfold [1] [kcal/mol] | folding stability dG unfold [2] [kcal/mol] | folding stability dG unfold [3] [kcal/mol]
SAANPKDIVKAEIEIPGKYGAKFTVYTLPDGTVIVPAEVTLIEGDKPVKKPLVLVVDASTGKILAIADASAG [r14_630_TrMRF] | 1.09 ± 0.033 | 1.68 ± 0.06 | 1.46 ± 0.042
SAARVTVTYDPATNTVTVTVEVEVDGVTVTVTATVTFVDGRLVLTVTVEVRPPPPPPSAEQLAALRAAASAG [r14_930_TrROS_Hall] | 2.92 ± 0.19 | 2.69 ± 0.072 | 2.74 ± 0.33
SAAVTPLTETIPYTPEEARAAAEEVAAARAAALRAAGYRVLSVDVVEMEPGEYVIRMRLTVAAPDEALPSAG [r14_973_JUSTAS] | 2.22 ± 0.033 | 3.12 ± 0.036 | 2.86 ± 0.06
SADDDEEQKEKQKPKPQIPIKPVATYNFPDHPFEIWEIDPDNGRIIIRFWGNGWWYEMDPEDGEWEWYPSAG [r14_359_TrROS] | 1.81 ± 0.064 | 2.26 ± 0.059 | 2.14 ± 0.14
SADGKVKVVVNLRITVTPLSPDGTPQPLPAASIPLVFEGDANDPEAVEQAVRDVLDALAPLFPDAEIVVDSA [r9_1112_TrMRF] | 1.23 ± 0.082 | 1.98 ± 0.046 | 1.73 ± 0.13
SADPPDAVKIEIRIYMMEYDPDGKWEQREFNIEIEVAPDGHIIIRLGNWWIVIDPKEGEVTEIFPGFRFSAG [r14_821_TrROS] | 3.43 ± 0.13 | 3.67 ± 0.18 | 3.14 ± 0.39
SADRIKINVMTHQSPDGRPYYMVSIRIPGNGKEIMGPIDSPEDAEEQAKEIADKLEKEGIPIEVEIYPMSAG [r14_263_TrROS] | 2.13 ± 0.066 | 1.82 ± 0.09 | 1.94 ± 0.17
SADYVLYLVTLKVRRKVGDKEYELEVPLLILAPEDELDESEIEAIAREAAAELGAEVEEVKIERLPLNASAG [r14_278_TrMRF] | 3.94 ± 0.11 | 4.88 ± 0.086 | 4.66 ± 0.059
SAEDEYEVELTFEAPLNEPEVIEKIKKELEELGFEIEEVKVEVLEDPKTVKVTLKARVKGIPPEKLKALSAG [r14_956_TrMRF] | 1.78 ± 0.033 | 1.92 ± 0.099 | 1.82 ± 0.086
SAEELAEAEARRLGVDPAAVALEVTEEVDPLTGKPRKIVTVTIALPDRAYVITVDASDGTVLERRPLEAASA [r9_1219_JUSTAS] | 2.33 ± 0.051 | 2.15 ± 0.034 | 2.28 ± 0.081
SAEERVFLVPVERRPDGSVRLRFVRPDRVVELELPAGFTVEDALQALSAHPDLRVEVLEAHPDLVLVRGSAG [r14_404_TrMRF] | 1.824 ± 0.017 | 2.741 ± 0.023 | 2.46 ± 0.054
SAEEVEIEIEIVIKMSEEEAERLAKELAEELARELGAEIVDVEVEVVEVDGELYVRIRVKIRLPKEELESAG [r14_219_TrROS_Hall] | 3.47 ± 0.098 | 4.7 ± 0.17 | 4.23 ± 0.14
SAEIEVKPGEELEITVNGKKLRITVEKVEVRVEVKELPPPPPPEVEVYTLTRDPATDELRLERRTAEELASA [r9_881_TrROS_Hall] | 0.0576 ± 0.22 | 0.352 ± 0.24 | 0.23 ± 0.15
SAEIPPDLIAVILGIEPYRFGERDFLVITAAIFRPEEPDAEVTLYTIVIEGDKIVSITPSRYRVPPEALSAG [r14_651_TrMRF] | 2.92 ± 0.098 | 3.86 ± 0.047 | 3.55 ± 0.11
SAEKKVLVKVKIEVFNEDGELVEELELEVEMSAEEVKKKIKEELLKLLKEKYPDKPLTIKVEVEVKELPSAG [r14_570_TrROS_Hall] | 4.36 ± 0.74 | 3.61 ± 0.19 | 3.67 ± 0.23
